Measurements published in paper doi:10.1101/2022.11.08.515461 (bioRxiv, 2022).

B1: human LIS1-SNAP (from pFastBac:8His-ZZ-TEV-LIS1-SNAPf) (natural protein)
chain: MVLSQRQRDELNRAIADYLRSNGYEEAYSVFKKEAELDVNEELDKKYAGLLEKKWTSVIRLQKKVMELESKLNEAKEEFTSGGPLGQKRDPKEWIPRPPEKYALSGHRSPVTRVIFHPVFSVMVSASEDATIKVWDYETGDFERTLKGHTDSVQDISFDHSGKLLASCSADMTIKLWDFQGFECIRTMHGHDHNVSSVAIMPNGDHIVSASRDKTIKMWEVQTGYCVKTFTGHREWVRMVRPNQDGTLIASCSNDQTVRVWVVATKECKAELREHEHVVECISWAPESSYSSISEATGSETKKSGKPGPFLLSGSRDKTIKMWDVSTGMCLMTLVGHDNWVRGVLFHSGGKFILSCADDKTLRVWDYKNKRCMKTLNAHEHFVTSLDFHKTAPYVVTGSVDQTVKVWECR
B2: Pac1-SNAP (natural protein)
chain: MTNWQQQLPLTDTQKNELDKSVLRYLNWNYKQTVRHEHAQDYESVRHAIVTLSGFLLQESVDRQEFISNNDTSNESMVDIDELLLPKKWNSIVRLQKKIIELEQNTETLVSQIKDLNTQVSELAQFKPTTSNGTSAHNVLKWIPRNLPSCLINVESSVTSVKLHPNLPIVFVATDHGKLYAFDLFNYTIPLASLQSHTKAITSMDVLFTNYTNSSKKNYLVIVTASKDLQIHVFKWVSEECKFQQIRSLLGHEHIVSAVKIWQKNNDVHIASCSRDQTVKIWDFHNGWSLKTFQPHSQWVRSIDVLGDYIISGSHDTTLRLTHWPSGNGLSVGTGHEFPIEKVKFIHFIEDSPEIRFRTPSTDRYKNWGMQYCVSASRDRTIKIWEIPLPTLMAHRAPIPNPTDSNFRCVLTLKGHLSWVRDISIRGQYLFSCADDKSVRCWDLNTGQCLHVWEKLHTGFVNCLDLDVDFDSNVTPRQMMVTGGLDCKSNVFMR
modifications: JF646-SNAP-tag ligand on the SNAP tag (fluorescent labelling)

Legend:
[1] = target: human dynein_(MOTOR)^MT-B (microtubule-bound mutant of the motor domain) (human | T. thermophilus); assay: mass photometry
[2] = target: human dynein_(MOTOR)^MT-U (microtubule-unbound mutant of the motor domain) (human | T. thermophilus); assay: mass photometry
[3] = target: human dynein_(MOTOR)^MT-U (microtubule-unbound mutant of the motor domain) (human | T. thermophilus); assay: cryo-EM structure
[4] = target: human dynein_(MOTOR) (wild-type motor domain, residues 1458-4646) (human, UniProt Q14204 1458-4646); assay: mass photometry
[5] = target: yeast dynein_(MOTOR) (wild-type; ZZ-TEV-dynein331-HALO) (budding yeast) (UniProt P36022); assay: mass photometry
[6] = target: yeast dynein_(MOTOR)^MT-U (microtubule-unbound mutant of the motor domain) (budding yeast | T. thermophilus) (UniProt P34945); assay: mass photometry
mass photometry = target: the molecule itself; assay: mass photometry

Sequence of yeast dynein_(MOTOR)^MT-U (microtubule-unbound mutant of the motor domain) (budding yeast | T. thermophilus) (P34945 whole entry, change not shown, the tested form may be a part): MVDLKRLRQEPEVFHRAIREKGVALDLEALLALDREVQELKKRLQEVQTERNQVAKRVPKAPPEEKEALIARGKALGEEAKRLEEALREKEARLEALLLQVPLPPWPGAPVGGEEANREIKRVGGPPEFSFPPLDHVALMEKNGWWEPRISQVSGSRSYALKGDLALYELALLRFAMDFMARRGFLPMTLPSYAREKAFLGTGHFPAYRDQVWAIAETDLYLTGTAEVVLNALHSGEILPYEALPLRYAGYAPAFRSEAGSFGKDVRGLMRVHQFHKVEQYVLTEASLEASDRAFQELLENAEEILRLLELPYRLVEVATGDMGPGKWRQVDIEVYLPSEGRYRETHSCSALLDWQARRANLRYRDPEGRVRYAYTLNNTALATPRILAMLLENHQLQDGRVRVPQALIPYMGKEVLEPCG
Sequence of yeast dynein_(MOTOR) (wild-type; ZZ-TEV-dynein331-HALO) (budding yeast) (P36022 whole entry, the tested form may be a part): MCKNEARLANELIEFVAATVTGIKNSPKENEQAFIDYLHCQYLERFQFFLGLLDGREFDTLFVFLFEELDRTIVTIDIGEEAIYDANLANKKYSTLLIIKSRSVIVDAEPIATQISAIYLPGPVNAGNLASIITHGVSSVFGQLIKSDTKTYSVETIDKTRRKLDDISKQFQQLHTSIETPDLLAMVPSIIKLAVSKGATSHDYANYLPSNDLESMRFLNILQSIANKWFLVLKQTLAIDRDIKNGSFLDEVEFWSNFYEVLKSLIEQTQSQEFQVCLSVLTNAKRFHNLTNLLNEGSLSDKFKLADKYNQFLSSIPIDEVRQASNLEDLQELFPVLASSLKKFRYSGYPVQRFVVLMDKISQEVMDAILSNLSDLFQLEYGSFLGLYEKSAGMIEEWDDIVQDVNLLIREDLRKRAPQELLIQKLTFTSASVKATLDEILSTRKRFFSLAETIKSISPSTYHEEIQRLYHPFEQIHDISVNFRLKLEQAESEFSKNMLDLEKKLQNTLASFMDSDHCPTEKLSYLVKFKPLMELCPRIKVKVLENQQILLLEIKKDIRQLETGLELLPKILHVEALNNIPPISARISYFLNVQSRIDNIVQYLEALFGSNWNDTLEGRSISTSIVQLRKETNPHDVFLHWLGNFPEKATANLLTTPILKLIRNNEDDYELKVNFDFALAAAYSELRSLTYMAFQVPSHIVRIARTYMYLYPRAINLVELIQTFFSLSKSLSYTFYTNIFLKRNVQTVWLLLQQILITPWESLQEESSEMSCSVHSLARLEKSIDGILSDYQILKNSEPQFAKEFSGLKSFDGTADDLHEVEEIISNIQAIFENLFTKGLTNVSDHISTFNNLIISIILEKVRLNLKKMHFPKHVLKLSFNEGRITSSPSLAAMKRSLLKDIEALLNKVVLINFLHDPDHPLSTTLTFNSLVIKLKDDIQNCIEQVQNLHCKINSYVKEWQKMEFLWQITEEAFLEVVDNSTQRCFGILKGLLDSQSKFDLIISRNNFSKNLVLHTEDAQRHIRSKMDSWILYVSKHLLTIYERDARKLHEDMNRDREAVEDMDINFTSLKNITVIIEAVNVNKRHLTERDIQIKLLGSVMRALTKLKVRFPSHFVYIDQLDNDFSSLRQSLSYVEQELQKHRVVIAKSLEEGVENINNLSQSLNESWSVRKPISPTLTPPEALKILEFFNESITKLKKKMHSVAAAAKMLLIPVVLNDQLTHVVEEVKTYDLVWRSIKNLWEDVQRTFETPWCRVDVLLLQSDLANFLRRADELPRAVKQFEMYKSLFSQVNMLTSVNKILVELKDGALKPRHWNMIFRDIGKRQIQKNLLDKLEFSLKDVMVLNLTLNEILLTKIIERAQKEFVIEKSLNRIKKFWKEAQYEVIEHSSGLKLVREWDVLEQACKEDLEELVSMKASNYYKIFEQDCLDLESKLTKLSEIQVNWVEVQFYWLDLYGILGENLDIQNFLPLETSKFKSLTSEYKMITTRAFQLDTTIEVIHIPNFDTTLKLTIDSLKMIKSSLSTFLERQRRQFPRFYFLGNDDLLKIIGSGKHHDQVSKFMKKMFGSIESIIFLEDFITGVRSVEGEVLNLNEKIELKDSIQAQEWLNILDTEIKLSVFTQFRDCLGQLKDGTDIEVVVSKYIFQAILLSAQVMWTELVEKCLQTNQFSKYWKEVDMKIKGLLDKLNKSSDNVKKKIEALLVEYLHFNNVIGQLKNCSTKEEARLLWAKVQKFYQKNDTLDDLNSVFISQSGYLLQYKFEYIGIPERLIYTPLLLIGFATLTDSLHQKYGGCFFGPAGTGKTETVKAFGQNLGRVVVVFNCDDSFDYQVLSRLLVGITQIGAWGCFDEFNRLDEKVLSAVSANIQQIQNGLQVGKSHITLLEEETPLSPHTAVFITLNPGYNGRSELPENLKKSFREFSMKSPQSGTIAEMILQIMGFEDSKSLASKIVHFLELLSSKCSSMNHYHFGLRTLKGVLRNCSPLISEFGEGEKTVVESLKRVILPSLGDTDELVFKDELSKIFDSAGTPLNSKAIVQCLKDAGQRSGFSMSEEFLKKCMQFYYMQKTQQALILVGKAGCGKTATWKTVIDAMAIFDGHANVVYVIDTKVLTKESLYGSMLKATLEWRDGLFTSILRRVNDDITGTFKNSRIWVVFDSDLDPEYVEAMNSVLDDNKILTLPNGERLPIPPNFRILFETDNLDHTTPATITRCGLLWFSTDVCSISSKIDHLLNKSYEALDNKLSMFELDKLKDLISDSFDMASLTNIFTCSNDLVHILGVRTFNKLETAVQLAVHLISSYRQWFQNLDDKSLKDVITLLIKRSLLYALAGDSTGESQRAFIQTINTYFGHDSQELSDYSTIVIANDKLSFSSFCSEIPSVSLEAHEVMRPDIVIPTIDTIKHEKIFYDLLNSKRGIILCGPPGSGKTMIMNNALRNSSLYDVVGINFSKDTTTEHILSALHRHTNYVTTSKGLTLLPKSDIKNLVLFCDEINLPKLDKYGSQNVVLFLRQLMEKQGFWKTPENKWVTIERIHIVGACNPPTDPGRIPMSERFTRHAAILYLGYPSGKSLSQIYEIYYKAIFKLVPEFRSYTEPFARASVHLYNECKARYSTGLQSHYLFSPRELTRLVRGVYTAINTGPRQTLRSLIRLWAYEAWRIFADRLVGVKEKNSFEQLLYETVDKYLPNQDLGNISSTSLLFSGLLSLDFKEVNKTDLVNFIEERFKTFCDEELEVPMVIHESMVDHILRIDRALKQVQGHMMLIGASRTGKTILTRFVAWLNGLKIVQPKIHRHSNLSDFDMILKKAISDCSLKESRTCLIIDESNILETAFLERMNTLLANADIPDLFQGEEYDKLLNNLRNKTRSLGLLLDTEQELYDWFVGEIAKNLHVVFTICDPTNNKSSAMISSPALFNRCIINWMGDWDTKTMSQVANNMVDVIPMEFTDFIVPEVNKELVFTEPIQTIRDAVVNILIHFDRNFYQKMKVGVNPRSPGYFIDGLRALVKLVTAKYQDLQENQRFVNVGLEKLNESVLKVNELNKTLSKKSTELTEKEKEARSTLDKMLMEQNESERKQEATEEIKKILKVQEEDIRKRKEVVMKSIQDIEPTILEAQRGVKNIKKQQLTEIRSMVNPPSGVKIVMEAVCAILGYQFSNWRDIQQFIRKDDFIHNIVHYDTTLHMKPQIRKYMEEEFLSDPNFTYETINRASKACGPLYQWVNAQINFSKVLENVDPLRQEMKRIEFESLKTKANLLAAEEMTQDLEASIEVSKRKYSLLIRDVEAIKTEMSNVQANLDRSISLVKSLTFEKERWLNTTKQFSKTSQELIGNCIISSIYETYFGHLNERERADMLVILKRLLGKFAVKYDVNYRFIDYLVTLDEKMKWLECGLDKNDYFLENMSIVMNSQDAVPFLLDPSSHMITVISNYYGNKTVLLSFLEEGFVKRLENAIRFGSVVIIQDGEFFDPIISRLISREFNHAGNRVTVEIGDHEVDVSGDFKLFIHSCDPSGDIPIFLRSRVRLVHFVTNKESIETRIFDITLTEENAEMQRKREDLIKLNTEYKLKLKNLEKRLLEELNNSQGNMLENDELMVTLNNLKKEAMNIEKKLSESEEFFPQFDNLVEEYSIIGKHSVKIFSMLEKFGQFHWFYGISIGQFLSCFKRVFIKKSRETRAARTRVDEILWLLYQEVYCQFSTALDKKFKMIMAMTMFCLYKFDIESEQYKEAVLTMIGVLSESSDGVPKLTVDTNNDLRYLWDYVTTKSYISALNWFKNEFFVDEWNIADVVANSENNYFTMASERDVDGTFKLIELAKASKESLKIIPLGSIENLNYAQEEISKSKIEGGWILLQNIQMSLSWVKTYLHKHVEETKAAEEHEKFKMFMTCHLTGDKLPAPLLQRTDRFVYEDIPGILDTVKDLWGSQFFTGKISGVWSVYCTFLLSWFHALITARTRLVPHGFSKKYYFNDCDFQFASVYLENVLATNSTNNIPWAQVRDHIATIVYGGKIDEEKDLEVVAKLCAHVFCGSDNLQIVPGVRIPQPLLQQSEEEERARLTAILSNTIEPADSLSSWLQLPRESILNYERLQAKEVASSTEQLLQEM

Binder	stoichiometry N (LIS1 dimer per dynein (MOTOR) monomer) [1]	fold LIS1-binding affinity against dynein (MOTOR)^MT-B [2]	stoichiometry N (LIS1 dimer per dynein (MOTOR) monomer) [2]	percent of particles with 1 LIS1 bound (3D classification) [3]	percent of particles with 2 LIS1 bound (3D classification) [3]	percent of particles with “1.5” LIS1 bound (3D classification) [3]	stoichiometry N ([3]; scale: LIS1 WD40 beta-propellers per dynein motor)	binding result [4]	N of the second species (∼890 kDa) (dynein monomers per Pac1 dimer) [5]	stoichiometry N (Pac1 dimer per dynein (MOTOR) monomer) [6]	stoichiometry N (mass photometry)
B1	1	2 fold	1	36.2%	29.3%	34.4%	2	binds	–	–	–
B2	–	–	–	–	–	–	–	–	2	1	2
